test: soluble fraction after stress (log2 fold change); higher = more stays soluble; pooled small domains, quantitative proteomics; conditions: stress: pH 4
Outline: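 Custom libraries of small protein domains were pooled and measured with high-throughput quantitative proteomics after pH 4 stress. The read-out is the fold change in the amount of each domain that stays soluble after the acid stress, taken as a measure of aggregation propensity. Fold changes are on a log2 scale, and higher values mean more of the domain stayed soluble.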

Sequence	soluble fraction (log2)
HMGTAGLSPWHKIAVLMIALGPEGASELMRHFGEDEVEQVVQAIADLKNVPSELQDAVLLEMEGALQEG	-0.796
HMIDFIGLEAKLLSTISGEKMGNAEVIVDGNVMNIYVKSLDTSEIKFRENVLIIKQSDDKNYYLVAKP	-1.01
HMEQPPVPSVSITAALGSAVARRLAPHGFQKMPDLVDAYRAGKLAQISGIGGTTLDLIREWLTANARQQ	-0.189
HMRDLITYVVQINGKLRGKLEVAPDTDPEELKALALEVENVKRSLEGWVVKKVIVVPGKMVSIAAG	-0.105
HMEQMSLISKKKGERIDKFLGENLGDLSRSYIQKLLKDGLILVNGKKVKANYKLNEGDQIDVEVPDP	0.407
HMHSDWITWWYLKDKRFDDDYSLWDRQPVHPEYFEVVKEFKAPPESNPGGLDEVKRILRTYIPDAFAP	0.162
HMELNEMEAWSLVSKALRNGTYGAVEEFSRLPPTVQEAVGNPDNLRNWATSDYKAIETVIQSNFIKTY	-0.429
HMKINYNEFLRRFLGEKEGDIIEMETGKRIGTHKGYWFHTIGQRKGLGLGGGPWFVIRKDIDENIIYVSHG	-0.643
HMAEAETVKFVGNSLLLVSGAAKGERLSVYTVGGQHVLSADATKPVDVAALHSGVYVVRTTNGVITKIVK	0.0831
HMRKAERHLLIKQVIDEFTIRTQEELLAKLSDYGVNATQATISRDIRDLKIVKAPDENGISRFVFF	-0.358
HMSSKRDQFIVLGQEILEKMFKNEGLEFSEKGLLAVMPNFEAESINDIYAKVGEGLISGWDVMKAVYPAY	-0.841
HMSKASLFFLFNHKDELYIVDNNHVQDVPKPRELIRRFSTIEQIREHALHLGLPIANDTARE	-0.0573
HMQKLNIEEQIVYDIIFKNKELSANEIQIKSGIKTSILNALLINLEIKQYIKLKFGNFYEIK	-1.63
HMSIMNLSEKIVVLRKSNGMSQEELAEKLYVSRQAVSRWEMGTAVPDSTNILQLGKLFHVTTDYLLNDEYE	-0.232
HMETTEELISKTVPISYADMAALTGILDGVKSARGDIQVDDRTSTIIIHDIQSSIDEMMRLIKILD	-1.13
HMLIADSDALRSQIESILNGNPNEVASFRAGKESLMGWFVGQVMRSTGGKADPKRTRELLQELLTK	-0.0841
HMNNDSQYLATLQRYYAEHRVLPSYARMLPLLGFASKAAVKKVLERLEVVGMLERTEDGDWAPSERFFER	0.0419
HMTIDETKKQQVKDGLKDIPGVTVEFVGDKAVLKGAVTDANRVKIMQIVMAAKVLSDASGLTSK	0.237
HMTPLFNQGEVLKGFVLQTGTNNRVLLQIGTAKVLADAQTPLKAGEQLTLRVEATGPRTVLQILG	0.101
HMALPASLSPREREIVSLISQGKTNSEIASLLYISVPTVKTHISNIFQKTGVSNRTSLLNRLRMS	-0.0542
HMLFYSDLVRLISFAEATLGKNEFETWYMSHHQGMKYTEIAIALGISVRTVEDRIARTKNHFRKI	-1
HMIGIRLKELVLKNQSAWVGLRVSELDISRKTMIVMIRRGDKMLIPNGSTILRSGDVLLLYTR	-0.354
HMGPGSYVVNVKPYAYVSINGRDYGRTPVGPIRLDPGTYKVVFTHEHRPSFSRTIVVEAGRETFETFPYPG	-0.107
HMDEYTREQFVADMEEGRVREVTIHPNSEVPTGYIRVELANGADMKLYVTDIVEAEELVRSYGFDPPVRDV	-0.56
HMGGWEEGVYVVREGDTLSDIVHDAVKGTEIHPDFILNAIVRVNPSAFVRGNPSWMLAGKKIK	-0.373

Sequence	soluble fraction (log2)
HMVLTGTIKKYNNERGFGFISTSNFGDVFFHIKDFQKGEQPIPGREVYFEVVKKENKKRAIHVYYSD	-0.243
HMNSKSDDELLSKTTSLLIHAAKIDENYTDKEKEIIKKTLIQLGVKESKADQIMLTAEINEE	-0.36
HMDGVSAEAVKSHIKTLIDGEGAKILSDDTLVDLLNAKGFDIARRTVAKYREAMGIGSSVQRRRQKKMG	-0.0273
HMSKTQVKSVLDDIKGIGVVRRKALIKHFNDIEAIKAAQLAELKAVAGMDSKSAQSVYDFFHK	≥ 0.43
HMITEQEFQRVAAYVKNKAGINLNEKKVLVQGRLDSYMQRKGYSSYDEFMDRVERFPTGPEAEDLMNALTT	0.0246
HMNSFGWESLIDKEGIADTDLHPSGWVRIDDRRIFVVSEGDFIDKGSGVTVLSVDGNRVVVRELI	-1.03
HMIPDPEKVMFDGGIRLLTQAGITEGKARSILGKWKRDHETERIIAALGAAQREGAIEPVSFIERVLRN	-0.475
HMSDIHARIAAALAALTSPEKIHDLVVDDDGKVSFTFHLTREDPATLVRDARKAVQAVDGVRDVKVNVVDP	0.00539
HMQPPVDGNEIMEIFGIKGSPVIGVIKSTIKNAILDGIIAPNDREAALELMFRIADENGLKPVVTQTQ	-0.855
HMGSVVATLRKLIIDGHYPAGTRLAEIPVANALGVSRTPVRLAFRTLQQEGLLQTVGKRGIVVRAF	0.137
HMGDFNYVMPDFRGLEAHDVSSFLNRNGFLLRPTEHEVSFTQRPGLILMHYPEPGYPFSRSSPITLVVS	-0.932
HMASIEPLKTSIRIIWYINGEKDSETLLNTPPTAANKANAQKIADMVEQQIQMGIFNRDAVFPSSPKRQ	-0.559
HMEGLEKDDGGYYFEKDNGERARNEWVYVEYEGKGYWYYMTDYGYPLRSAITPDGYKVNSNGHWIDEGN	-1.12
HMSSVEQAILETLSKEHSHLTSLQVFEEIRGRLPAVNQSTVYRALERLVEQGVVSVSDMGTHAAVYE	0.119
HMEVLSYYGSRGQEVVNIQTKLKQWGYYKGNIDGIFGNLTYQAVREFQRKNGLKVDGIVGPETLAALGLPT	-0.479
HMSFESMGLTPRQADVLTLLLQGKSNKDIARRLVLSVETVKDHVQAVLRALGVSSRTQAVLAVGQMTQQ	-0.37
HMDESIPVITYKDSVYANPKAFADAHKLPYKSLHNALSKARKEGKVRFMYKQYNFHLDNNGYIVAVS	-0.195
HMNATLSSSYPTSVVTDGEIYKLTFGLNGKYNGQEQITVKPHGDSNIYDSGGLRAYQNTQSNNVVTLN	-0.254
HMARLEELSNGSIVEGLLSGEAVTVVSTKWYGSSSMEVFYKTNRGSTGSQILYREDEPSLTVLEKS	-0.425
HMAEPLEIGDTVRIIDGFYGGEIGVISELVNPDAKNAEFEQVRVRLDQDTELALPIHNVERVRL	-0.0894
HMDKMVAVPNVRGIEASEAEATLIAQGLFVEVEKSDSEDANVAYGEVYAQTPKAGNRVEEGTTITIKVRTE	0.229
HMSVKSVSLRKISYKVRRGDSLYNIAKNFSLSINDITHWNSINKKSYLQPGQRLTLYINPRN	0.193
HMVDIQTGQKVRIHTSQFAGKIGNITALNVKSAELPNGIRTATASILMQSNENVMLPVSNFDIIE	-0.044
HMVEVVDAEKLEERLSKVFSAAVLLEIYNENPAHGKEYAYLFTARKNAVEEMIENGQMKRETWEAK	-1.91
HMDNLATRILKELNNNDGFLPLSDKSQPEAIYQAFGISKKSYKTAIGTLYKKRLITISENGIQLTD	-0.2

Sequence	soluble fraction (log2)
HMSHYDILEVDPKASATEIKQSFRKKSLQYHPDRNKSSDAHEYMTKITEAYNILGDKDKRRHYDMELKL	0.172
HMNLLPAGTYKLKDLVTAEDEEIGAKKGDVVIAHEDTPPSDRVLGVDIFPVIHKNTSKKIYVSLEDI	0.101
HMPNQIKQIAVNTASVSDIATIPGISFDFAKEIWEFRILRQKIGSLSELQKIEGMTASKYALIELYLHI	-0.41
HMNAVDLLSPQEQRIFELIGEGMSNRQIADVMYLAEKTVKNYVSNVLMKLGMERRTEAAALAARLDERQK	-0.468
HMIMTHSALLEKDGFDIVKVHFERPNDDGFDFLDMTLPGEIVYKSFGFSEDEILKLKRYAKNNSSLIWDF	-1.87
HMTEDNDLETIAYDILKERNLNNININVKNGVLNIYGKTETLKEKREIEKILSSLNVSKINNLIKI	≥ 0.43
HMLGERIRRLRKEMGMSVTELARRVKTSPSYISEIEKGEKTPSLNLLVRIASELRTGIDYLTGL	-0.00698
HMDDSPTARALRTLDLIHNRPGITAAELADRLGVTERAVRRYVLTLRDAGVPVLGTPGRYGGYQVGK	-0.0455
HMSILDEAEFKKIESALLDFITNNIFTVKELLQASRGIKQDKFWKVFQFLQSERKVVVNELGYIEL	-0.513
HMKEQLEAYVNRLFADAALTIRNAEVRQEILQHALDRYDDLIASGKTEQEAYDETVSGIGDVSGLYEHK	-0.526
HMKKMEEEFALFNAWVDRRLGIPLAAYKENQMQRRILTIMENSGAKTLREYQQLIEGDEGVRAAFLAHIT	-1.76
HMNKEIEDYVATYSSMKAKEAAAIFDTMTSDLDLVAKILEAMSADDRAKILEQMNEENAARLTKMMD	-0.654
HMGTTTGKVNATGVNFRTGPSTSYSSMGKLGIDTAVTILGKSGDWYQVKVNSTGKTGYVFAKYITITSVV	-0.434
HMDSISEQIYSIIKEEILLAKRKPGEQINPRKLADEFETSVMPIRDALNQLANEGLVIRKPRVGFFVR	-0.177
HMYEVDGLGIRIAQLRKKQDLTQEAFARTLGVSPQAVSKWETGIGYPDITLLPQIAKELGVSIDQLFGRN	0.0751
HMRAPETEITYTEFKTALRAGQIETATVGIEQISGKLTDGDLYRTVRVDDPDLLKDLEANHVNAAGRV	-0.0386
HMDKESQTMFRLLTGVSGVGPKVGLAILSVLSPDRVVLAISAGDHKAFTAASGVGPKLGQRIVLELKDKVG	-0.557
HMLDLYYDSEDKLLIDMGTGEVIRSFADDKRSLVFDAQAKILFDEDSGDIVYSSYFDKLITDKLASKS	-1.51
HMMTDEEFLRIAGYMKQRYGIDLGQKKVIMNGRLENHIKSGGWSSFHAFMNDLEKDSSGKLEKELVNLLTT	-0.367
HMVNPHPVYRSWGLLYVEARDGDSLESIAKEFGFSVKKLAKYNEVPKDYPLEAGDIVYLEKKKK	0.019
HMTFTQFAESHGVIIKSLKASDKIQRGPTVAHPKSDNGAWLWDGNRGGVMAWDGDGQWYWFK	-0.108
HMNKITIEEAKSIALKHSNLDESQVSFIRSEYDFDNGIEKYEIEFYYNNNKYEYEINAKTGDIISYDYDI	-0.528
HMKTAAKVLGESGGKPVTVQSGRYGPYVQLGTIRATLPKDLDQEAVTLDKALELIDAKAERSGK	-0.0034
HMRGPTIELLIQKSALYEELDDSENALKEILKAFDRDSLNSDVLNRLVNLLLNDKQIDRAENYNQLLIEK	-0.847
HMSHGFVHLKGAVQHPGIYPVKENTRWDEVVKAAGGLTAAADIQQVNLAKVASDQESLYVPEKGET	0.161
